In US7951356B1, “Tissue factor compositions and kits for coagulation and tumor treatment” (Board of Regents, The University of Texas System, priority 1997, dated 2011):

Legend:
[1] = system: L540 human Hodgkin's disease tumors; experiment: Anti-tumor effects (tumor growth), L540 tumors; type: in vivo, mouse; details: day 14; FIG. 19
Procedure: (§1) Accepted animal models were used to determine whether administration of tTF or immunoglobulin-tTF conjugates suppressed the growth of solid tumors in mice. The tumor test systems were: i) L540 human Hodgkin's disease tumors growing in SCID mice; ii) C1300 Muγ (interferon-secreting) neuroblastoma growing in nu/nu mice; iii) H460 human non-small cell lung carcinoma growing in nu/nu mice. To establish solid tumors, 1.5×10^7 tumor cells were injected subcutaneously into the right anterior flank of SCID or BALB/c nu/nu mice (Charles River Labs., Wilmingham, Mass.). When the tumors had grown to various diameters, mice were assigned to different experimental groups, each containing 4 to 9 mice.
(§2) Mice then received an intravenous injection of 0.5 mg/kg of tTF alone or linked to bispecific antibody. Other mice received equivalent quantities of bispecific antibody alone. The injections were performed over ˜45 seconds into one of the tail veins, followed by 200 μl of saline. The infusions were repeated six days later. Perpendicular tumor diameters were measured at regular intervals and tumor volumes were calculated.

3LL mouse lung carcinoma = experiment: In vivo tumor thrombosis, 3LL tumors; details: C57BL/6 mice, large (>800 mm^3) tumors; FIG. 11
Source text: (§3) Tumor test systems were of four types: i) 3LL mouse lung carcinoma growing subcutaneously in C57BL/6 mice; ii) C1300 mouse neuroblastoma growing subcutaneously in BALB/c nu/nu mice; iii) HT29 human colorectal carcinoma growing subcutaneously in BALB/c nu/nu mice; and iv) C1300 Muγ mouse neuroblastoma growing subcutaneously in BALB/c nu/nu mice. The C1300 Muγ tumor is an interferon-γ secreting transfectant derived from the C1300 tumor (Watanabe et al., 1989).
(§4) To establish tumors, 10^6 to 1.5×10^7 tumor cells were injected subcutaneously into the right anterior flank of the mice. When tumors had grown to various sizes, mice were randomly assigned to different study groups. Mice then received an intravenous injection of 0.5 mg/kg of tTF alone or linked to IgG, Fab′, or bispecific antibody. Other mice received equivalent quantities IgG, Fab′ or bispecific antibody alone. The injections were performed slowly into one of the tail veins over approximately 45 seconds, usually followed by 200 μl of saline.
(§5) Twenty-four hours after being injected with tTF or immunoglobulin-tTF conjugates, the mice were anesthetized with metophane and were exsanguinated by perfusion with heparinized saline. Tumors and normal tissues were excised and immediately fixed in 3% (v/v) formalin. […] Blood vessels having open lumens containing erythrocytes and blood vessels containing thrombi were counted. […]

[2] = system: HT29 human colorectal carcinomas; experiment: Anti-tumor effects (tumor growth), HT29 tumors; type: in vivo, mouse; details: nu/nu mice, large (1200 mm^3) tumors, intravenous; FIG. 14
Procedure: Anti-tumor effects were also observed in mice bearing HT29 human colorectal carcinomas (FIG. 14). Nu/nu mice bearing large (1200 mm^3) tumors on their flanks were injected intravenously with tTF219 or PBS (control), and growth of the tumors was monitored each day for 10 days. The tumors in the tTF219 treated mice discontinued growth for about 7 days after treatment, whereas the tumors in mice treated with PBS continued to grow unchecked.

[3] = system: C1300 Muγ mouse neuroblastoma; experiment: In vivo tumor thrombosis, C1300 Muγ tumors
Source text: as §3
Further, the C1300 (Muγ) tumor model of (Burrows, et al., 1992; incorporated herein by reference) was employed and modified as follows: (i) antibody B21-2 was used to target I-A^d; (ii) C1300(Muγ) tumor cells, a subline of C1300(Muγ) 12 tumor cells, that grew continuously in BALB/c nu/nu mice were used; and (iii) tetracycline was […] the mice's drinking water to prevent gut bacteria from inducing I-A^d on the gastrointestinal epithelium.
as §4
(§6) Twenty-four hours after being injected with tTF or immunoglobulin-tTF conjugates, the mice were anesthetized with metophane and were exsanguinated by perfusion with heparinized saline. Tumors and normal tissues were excised and immediately fixed in 3% (v/v) formalin. Paraffin sections were cut and stained with hematoxylin and eosin. Blood vessels having open lumens containing erythrocytes and blood vessels containing thrombi were counted. Paraffin sections were cut and stained with hematoxylin and eosin or with Martius Scarlet Blue (MSB) trichrome for the detection of fibrin.

[4] = system: H460 human non-small cell lung carcinoma; experiment: Anti-tumor effects (tumor growth), H460 tumors; type: in vivo, mouse; details: FIG. 13
Procedure: as §1, §2

[5] = Toxicity and histology of normal organs in treated tumor-bearing mice; type: in vivo, mouse; details: 30 minutes or 24 hours after administration
Source text: as §6

citrated mouse plasma = experiment: In vitro coagulation assay: tTF constructs localized on A20 lymphoma cells via bispecific antibody B21-2/10H10; type: cell-based; details: for time in which plasma coagulated: FIG. 20; for coagulation time: FIG. 4B
Procedure: This assay was used to verify that tTF, various derivatives and mutants thereof, and immunoglobulin-tTF conjugates acquire coagulation inducing activity once localized at a cell surface. A20 lymphoma cells (I-A^d positive) (2×10^6 cells/ml, 50 μl) were incubated for 1 h at room temperature with a bispecific antibody (50 μg/ml, 25 μl) consisting of a Fab′ arm of the B21-2 antibody directed against I-A^d linked to a Fab′ arm of the 10H10 antibody directed against a non-inhibitory epitope on tTF. The cells were washed at room temperature and varying concentrations of tTF, derivatives or mutants thereof, or immunoglobulin-tTF conjugates were added for 1 hour at room temperature. The bispecific antibody captures the tTF or tTF linked to immunoglobulin, bringing it into close approximation to the cell surface, where coagulation can proceed.
The cells were washed again at room temperature, resuspended in 75 μl of PBS and warmed to 37° C. […] The time for the first fibrin strands to form was recorded. Clotting time was plotted against tTF concentration and curves compared with standard curves prepared using standard tTF219 preparations.

[6] = system: C1300 mouse neuroblastoma; experiment: In vivo tumor thrombosis, C1300 tumors
Source text: as §3, §4, §5

factor X = details: appropriate phospholipid membrane environment; Ruf, et al., 1991b; cited from earlier work
[7] = system: HT29 (human colorectal carcinoma) xenograft; experiment: Tumor necrosis in HT29 xenografts 24 hours after treatment (Example XII); type: in vivo, mouse; details: 24 hours after intravenous injection; tumors 0.5 to 1.0 cm^3; FIG. 23
Procedure: For these studies, the inventors chose the HT29 (human colorectal carcinoma) xenograft tumor model. HT29 cells (10^7 cells/mouse) were subcutaneously injected into BALB/c nu/nu mice. Tumor dimensions were monitored and animals were treated when the tumor size was between 0.5 and 1.0 cm^3.
Animals were sacrificed 24 hours after treatment, perfused with saline and heparin and exsanguinated. Tumors and organs were collected, formalin fixed and histological sections were prepared. The average area of necrosis in sections of the tumors was quantified and calculated as a percentage of the total area of tumor on the section.

[8] = system: C1300 Muγ (interferon-secreting) neuroblastoma; experiment: Anti-tumor effects (tumor growth), C1300 Muγ tumors; type: in vivo, mouse
Procedure: as §1, §2

`COc1cc([C@@H]2c3cc4c(cc3[C@@H](O[C@@H]3O[C@@H]5CO[C@@H](C)O[C@H]5[C@H](O)[C@H]3O)[C@H]3COC(=O)[C@H]23)OCO4)cc(OC)c1O` [etoposide] showed an average tumor volume [1] of 1400 mm^3.

B1: tTF219: truncated Tissue Factor: residues 1-219 of TF plus an additional glycine at the N-terminus; SEQ ID NO:1 (protein)
chain: GSGTTNTVAAYNLTWKSTNFKTILEWEPKPVNQVYTVQISTKSGDWKSKCFYTTDTECDLTDEIVKDVKQTYLARVFSYPAGNVESTGSAGEPLYENSPEFTPYLETNLGQPTIQSFEQVGTKVNVTVEDERTLVRRNNTFLSLRDVFGKDLIYTLYYWKSSSSGKKTAKTNTNEFLIDVDKGENYCFSVQAVIPSRTVNRKSTDSPVECMGQEKGEFRE
For B1, the “tumor vessels thrombosed, on average” value (3LL mouse lung carcinoma) was 62%, the “time for which tumors discontinued growth after treatment” value [2] was “about 7 days” and the “thrombosis of tumor vessels” value ([3]; 24 hours after injection, large tumors, FIG. 9) was “practically all vessels in all regions of the tumor were thrombosed”. For the same molecule, the “effect on tumor vessels” value ([3]; small (<500 mm^3) tumors) was “largely unaffected”, the “gross appearance of tumors” value ([3]; starting within 30 minutes, progressively more marked up to 24 hours) was “blackened, bruised appearance” and the “tumor volume to which tumors regressed before regrowing” value ([4]; second treatment given when tumors were 900 mm^3) was 550 mm^3. For the same molecule, the “effect of the first treatment” value ([4]; tumors small (250 mm^3)) was “little effect on growth rate”, the “thrombi or abnormalities in paraffin sections of liver, kidney, lung, intestine, heart, brain, adrenals, pancreas, spleen” value [5] was “neither thrombi, nor histological or morphological abnormalities were visible” and the “time in which plasma coagulated” value (citrated mouse plasma; 10^−10 M tTF219, absence of Factor VIIa) was 60 s. The “time in which plasma coagulated” value (citrated mouse plasma; 10^−10 M tTF219, presence of 13.5 nM Factor VIIa) was 20 s, the coagulation time (citrated mouse plasma; 20,000 molecules per cell) was 140 s and the coagulation time (citrated mouse plasma; 300,000 molecules of tTF per cell) was 40 s. For the same molecule, the “effect on coagulation time” value (citrated mouse plasma; A20 cells incubated without both specificities needed to bind tTF to the cells, FIG. 4A) was “no effect on coagulation time”, the “increase in coagulation-inducing potency of tTF” value (citrated mouse plasma; presence of 0.1 nM Factor VIIa) was 2-5 fold and the “time until fibrin strands were visible after the addition of plasma” value (citrated mouse plasma; tTF bound to A20 cells by B21-2/10H10, mouse plasma, FIG. 4A) was 36 s. The “thrombosis of tumor vessels” value ([6]; large tumors (>1000 mm^3), 24 hours after injection, FIG. 10) was “virtually all vessels were thrombosed”, the “effect on tumor vessels” value ([6]; small (<500 mm^3) tumors) was “largely unaffected” and the “times less factor X-activating activity relative to native transmembrane TF” value (factor X) was “approximately 10^5 times”. The “necrosis in tumor sections, in words” value [7] was “some necrosis”, the “tumor size relative to controls receiving diluent alone” value ([8]; fourteen days after the first injection, small (300 mm^3) tumors, treatment repeated 6 days later, FIG. 18) was 75% and the tumor response ([8]; large (0.8 to 1.0 cm diameter) tumors, two intravenous injections 6 days apart, FIG. 12A) was “grew significantly more slowly”. The “tumor size relative to tumors in mice receiving diluent alone” value ([8]; one week after the second treatment, small (300 mm^3) tumors at start) was 60%, the “effect of the first treatment on tumor growth” value ([8]; small (300 mm^3) tumors, 16-20 μg intravenously, FIG. 12B) was “slight inhibitory effect on tumor growth” and the “effect of the second treatment on tumor growth” value ([8]; treatment repeated one week later, FIG. 12B) was “substantially greater, statistically significant (P<0.01), effect on tumor growth”.
